Measured values as given in US20220233746A1, “PHARMACEUTICAL COMPOSITION FOR JOINT DISEASE TREATMENT AND METHOD FOR PRODUCING SAME” (EDUCATIONAL FOUNDATION OF OSAKA MEDICAL AND PHARMACEUTICAL …, priority 2019, published 2022).

Experiments:
[1] = Measurement of mechanical strength of peptide hydrogel (rheology measurement, rheometer); format: physicochemical
Description: Next, an equal amount (100 μL) of 2×PBS, 4×PBS, 6×PBS or 10×PBS was added to the aqueous peptide solution and mixed. Therefore, the final concentration of PBS in the mixture was 1×PBS, 2×PBS, 3×PBS, and 5×PBS, respectively. Thereafter, it was allowed to stand still in a cool and dark place for one day. As a result, the peptide in the aqueous peptide solution self-assembled by the action of the salt in PBS, and a peptide hydrogel was obtained. In addition, as a comparative example, Eagle's minimum essential medium (EMEM), which contains salts necessary for gel formation but is considered to be toxic in vivo, or 10 wt % NaCl aqueous solution (final concentration is 5 wt %) was added in an equal amount to the peptide aqueous solution and mixed, and the mixture was allowed to stand still in a cool and dark place for 1 day. A peptide hydrogel was also obtained in this comparative example.
[Example 2: Measurement of mechanical strength of peptide hydrogel] In order to evaluate the mechanical strength of each peptide hydrogel obtained as described above, a rheometer (HAAKE viscosity/viscoelasticity measuring device (HAAKE MARS40) manufactured by Thermo Scientific) was used for each peptide hydrogel and the rheology thereof was measured.

rabbit meniscus defect = test: Rabbit meniscus defect model, transplantation of peptide hydrogel into the defect; format: in vivo, Japanese white rabbits
Description: First, 20 male Japanese white rabbits weighing 3.0 to 3.4 kg at 6 months of age were prepared, and a cylindrical defect with a diameter of 2.0 mm was prepared in the medial anterior segment of the meniscus of both knees (FIG. 2A). Further, a peptide hydrogel produced by the above method using a peptide of KI24RGDS and 5×PBS was prepared (FIG. 2B), and the peptide hydrogel was filled in the defect. The group in which the defect was filled with peptide hydrogel was designated as the KI24RGDS group, and the group in which no treatment was applied to the defect was designated as the control group. After transplantation, tissue evaluation was performed on the knees of each group using hematoxylin/eosin staining (HE staining) or safranin O staining. Tissue evaluation was performed at 2, 4, 8 and 12 weeks after transplantation, and 5 animals (10 knees) were evaluated at each evaluation period. In addition, the tissue evaluation used Ishida score and Quantitative Analysis of the Occupation Ratio of Tissue Regeneration (R/D ratio). In the evaluation based on Ishida score, scores were given from the three viewpoints shown in Table 1 below, and the degree of tissue repair was evaluated by the total. On the other hand, in the evaluation based on the R/D ratio, the degree of tissue repair was evaluated by analyzing the area of the entire defect (D) and the area of the repaired tissue (R) and calculating the ratio of R/D using ImageJ software as shown in FIG. 3.

[2] = hydrogel made with 5×PBS filled in 2.0 mm meniscus defect, 2, 4, 8 and 12 weeks after transplantation, versus untreated control group

## IKIKIKIKIKRGDSKIKIKIKIKI (Peputide including strand and turn) [KI24RGDS, self-assembling β-hairpin peptide tested as a peptide hydrogel formed by adding PBS, NaCl solution or EMEM to its aqueous solution]
[1]; comparative hydrogel produced with 5 wt % NaCl aqueous solution (final concentration)
  difference between the storage elastic modulus G and the loss elastic modulus G″: approximately 3750
[1]; hydrogel produced with 3×PBS (final concentration)
  difference between the storage elastic modulus G and the loss elastic modulus G″: approximately 3950
[1]; hydrogel produced with 5×PBS (final concentration)
  loss elastic modulus G″ of the peptide hydrogel: about 800
[1]; hydrogel produced with 5×PBS (final concentration), 6% aqueous peptide solution mixed in equal amount
  storage elastic modulus G of the peptide hydrogel: about 15,000
Rabbit meniscus defect; 2, 4, 8 and 12 weeks after transplantation (FIG. 4)
  macroscopic findings of the meniscus defect: became smaller and repaired
Rabbit meniscus defect; 2, 4, 8 and 12 weeks after transplantation (FIG. 5)
  safranin O-stained meniscus tissue findings: cells gathered in the defect and the tissue was repaired
Rabbit meniscus defect; [2]
  Ishida score: higher in the KI24RGDS group than in the control group
  R/D ratio (Occupation Ratio of Tissue Regeneration): higher in the KI24RGDS group than in the control group
